Target: Wild-type E. coli 70S ribosomes, purified from strain MRE600 (E. coli (endogenous in MRE600)) (UniProt P0A7R5)
Assay: co-sedimentation

## Escherichia coli transcription factor NusG, His-tagged, wild type (from UniProt P0AFG0 1-181) (natural protein)
  percent of total NusG recovered in the ribosomal pellet: 19%
  stoichiometry N: 1 NusG per 70S

From paper PMC5980749
